Source: the supplement of paper PMC9732359
± gives the uncertainty stated by the source.

Experiment: protein stability index of a GFP-peptide fusion (yeast GPS) (PSI 1-4); higher = more stable; sorted into four equal gates, so the index is relative within each strain
Outline: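 The protein stability index of a peptide was calculated by multiplying its read frequency in each gate by that gate's number and adding the products. The peptides were tiled 17-residue stretches of yeast proteins, fused downstream of GFP on a Cherry-expressing plasmid and carried in yeast as a pooled library. Mid-log cultures in leucine-free medium were sorted into four equal gates by GFP/Cherry ratio, and each gate's plasmids were PCR-amplified and Illumina-sequenced.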

| Sequence | protein stability index (doa10∆) | protein stability index (pdr5∆) | protein stability index (san1∆) | protein stability index (ubr1∆) |
| --- | --- | --- | --- | --- |
| YASFNDTFVHVTDLSGK [RPS14B] | 2.31 ± 0.098 | 2.88 ± 0.08 | 2.52 ± 0.084 | 2.73 ± 0.094 |
| NMLICAPTGSGKTNIAL [BRR2] | 2.55 ± 0.079 | 3.12 ± 0.08 | 2.12 ± 0.091 | 2.98 ± 0.053 |
| RIHVNPSYYGVRDTSPH [BRR2] | 1.96 ± 0.1 | 1.93 ± 0.072 | 1.74 ± 0.085 | 1.9 ± 0.058 |
| PDIVGHEFTLSFTYELK [BRR2] | 2 ± 0.038 | 2.06 ± 0.036 | 2.15 ± 0.05 | 2.21 ± 0.033 |
| AQLTHSLRRIRDEMSKA [MED8] | 2.33 ± 0.12 | 2.35 ± 0.07 | 2.02 ± 0.11 | 1.99 ± 0.052 |
| RKTLKEKAIPKDQRATT [RPO26] | 3.06 ± 0.057 | 3.18 ± 0.064 | 3.04 ± 0.049 | 3.31 ± 0.07 |
| AQDFKTDLRFQSSAIGA [HHT1] | 1.32 ± 0.12 | 1.41 ± 0.14 | 1.24 ± 0.19 | 1.3 ± 0.23 |
| AGKWFDPVLDWRKSDRE [SIR4] | 3.17 ± 0.088 | 3.44 ± 0.087 | 2.71 ± 0.14 | 3.18 ± 0.066 |
| DFLGVASTGSGKTLAFV [PRP28] | 3.42 ± 0.26 | 3.05 ± 0.22 | 2.92 ± 0.22 | 3.31 ± 0.061 |
| QQQQMQQQQQQQQQQQN [SSN2] | 2.31 ± 0.11 | 2.63 ± 0.098 | 2.8 ± 0.18 | 2.83 ± 0.1 |
| SLEQRTLNPDLFLYKEL [RPC82] | 3.28 ± 0.28 | 3.13 ± 0.19 | 3.21 ± 0.092 | 3.74 ± 0.27 |
| NQMKVAPIPKQLLQRIP [GAL11] | 2.28 ± 0.07 | 2.54 ± 0.062 | 2.52 ± 0.054 | 2.3 ± 0.043 |
| KVISEILTREVQNSTLA [RPS1B] | 2.51 ± 0.11 | 2.86 ± 0.1 | 2.64 ± 0.069 | 2.32 ± 0.059 |
| VGACTDEEMTISQKLHD [RRP43] | 3.14 ± 0.1 | 3.04 ± 0.089 | 3.04 ± 0.084 | 3.12 ± 0.059 |
| IALNLDTTVNDCLDKLL [SNF2] | 2.54 ± 0.14 | 3.06 ± 0.14 | 2.65 ± 0.1 | 2.9 ± 0.073 |
| YNIDANVIDTQRKNGVT [ECM29] | 2.75 ± 0.25 | 3.14 ± 0.092 | 3.26 ± 0.12 |  |
| FNVHEVPRAALEERFDP [YMR129W/POM152] | 3.13 ± 0.067 | 3.15 ± 0.078 | 3.16 ± 0.069 | 3.03 ± 0.079 |
| TPSTNEPYARVSGDLNP [FAS1] | 2.96 ± 0.074 | 2.6 ± 0.077 | 2.46 ± 0.15 | 2.39 ± 0.073 |
| TFPVGRVHRLLRRGNYA [HTA1] | 2.38 ± 0.13 | 2.86 ± 0.14 | 2.5 ± 0.087 | 2.27 ± 0.12 |
| SYPVNGSQKTFEIDDEH [RPS6A] | 2.98 ± 0.13 | 2.72 ± 0.12 | 2.81 ± 0.12 | 2.99 ± 0.12 |

| Sequence | protein stability index (doa10∆) | protein stability index (pdr5∆) | protein stability index (san1∆) | protein stability index (ubr1∆) |
| --- | --- | --- | --- | --- |
| AKAKRRHTTGTGRMRYL [RPL37A] | 3.14 ± 0.14 | 3.22 ± 0.083 | 2.99 ± 0.16 | 3.62 ± 0.16 |
| QKLDILVAKLKKVKSAS [SMC4] | 2.64 ± 0.076 | 2.25 ± 0.051 | 2.61 ± 0.071 | 2.73 ± 0.045 |
| IREIDVTGGKKALVLFV [RPS7B] | 1.3 ± 0.085 | 1.5 ± 0.1 | 1.3 ± 0.21 | 1.23 ± 0.063 |
| LVSVTSTLQHFQETLDS [MED8] | 2.4 ± 0.055 | 2.7 ± 0.063 | 2.43 ± 0.054 | 2.39 ± 0.048 |
| GMTPCTVSPDFVAATTN [FAS1] | 1.83 ± 0.076 | 1.98 ± 0.054 | 1.86 ± 0.12 | 1.99 ± 0.07 |
| LIEEEVEQDEGQCRTEL [YCS4] | 3.59 ± 0.13 | 3.53 ± 0.15 |  | 3.45 ± 0.12 |
| RIGVLQARMMQQQSADH [NSL1] | 2.88 ± 0.062 | 3.06 ± 0.057 | 3.06 ± 0.046 | 2.96 ± 0.042 |
| SYRNAFTNVLTKYSDVL [YJL039C/NUP192] | 2.12 ± 0.052 | 1.72 ± 0.059 | 2.36 ± 0.066 | 2.13 ± 0.048 |
| GILLLDSLIQLANRSKE [YJL039C/NUP192] | 1.86 ± 0.064 | 1.74 ± 0.059 | 1.64 ± 0.099 | 1.97 ± 0.051 |
| IPDHLAELIPELYSFQQ [SNF12] | 3.02 ± 0.077 | 2.94 ± 0.07 | 2.95 ± 0.05 | 2.93 ± 0.059 |
| NAEVVAGNIKCRNDAVN [BRR2] | 2.77 ± 0.11 | 3.67 ± 0.16 | 3.05 ± 0.087 | 2.86 ± 0.14 |
| EIEQVCKQVHDKLTSIQ [MED7] | 2.92 ± 0.067 | 3.23 ± 0.04 | 2.92 ± 0.06 | 2.89 ± 0.055 |
| ENDIEIKGPEFKFSGTV [YLR335W/NUP2] | 2.72 ± 0.14 | 3.04 ± 0.12 | 3.07 ± 0.15 |  |
| QPYEDRPFEGLFVISTE [RRP45] | 2.96 ± 0.052 | 3.12 ± 0.048 | 3.11 ± 0.048 | 3.05 ± 0.038 |
| DFIGHNSNINTLTASPD [ASC1] | 2.83 ± 0.075 | 2.87 ± 0.052 | 2.87 ± 0.068 | 2.96 ± 0.039 |
| LEKLVDHHPEGLSAREA [PRE10] | 2.92 ± 0.068 | 2.9 ± 0.059 | 2.65 ± 0.067 | 2.62 ± 0.058 |
| FCGKKTVKRGAAGIWTC [RPL43A] | 1.79 ± 0.072 | 1.88 ± 0.071 | 2.19 ± 0.11 | 1.92 ± 0.059 |
| TRPQMPSRTRETATSER [GRR1] | 2.85 ± 0.062 | 3.12 ± 0.06 | 3.03 ± 0.05 | 3.05 ± 0.036 |
| YQRSKRVNNPNVSLIKI [RPL33A] | 3.1 ± 0.067 | 3.15 ± 0.065 | 2.93 ± 0.059 | 3.21 ± 0.045 |
